Measurements taken from article PMC2112147.

What was measured:
[1] = molecular target: actinogelin (mouse (endogenous in Ehrlich tumor cells)) (UniProt Q7TPR4); assay: AUC
[2] = molecular target: rabbit skeletal muscle actin (rabbit) (UniProt P68135); assay: co-sedimentation; conditions: scale: G-actin units per actinogelin dimeric unit
[3] = molecular target: actinogelin (mouse (endogenous in Ehrlich tumor cells)) (UniProt Q7TPR4); assay: cross-linking

Sequence of actinogelin (Q7TPR4 whole entry): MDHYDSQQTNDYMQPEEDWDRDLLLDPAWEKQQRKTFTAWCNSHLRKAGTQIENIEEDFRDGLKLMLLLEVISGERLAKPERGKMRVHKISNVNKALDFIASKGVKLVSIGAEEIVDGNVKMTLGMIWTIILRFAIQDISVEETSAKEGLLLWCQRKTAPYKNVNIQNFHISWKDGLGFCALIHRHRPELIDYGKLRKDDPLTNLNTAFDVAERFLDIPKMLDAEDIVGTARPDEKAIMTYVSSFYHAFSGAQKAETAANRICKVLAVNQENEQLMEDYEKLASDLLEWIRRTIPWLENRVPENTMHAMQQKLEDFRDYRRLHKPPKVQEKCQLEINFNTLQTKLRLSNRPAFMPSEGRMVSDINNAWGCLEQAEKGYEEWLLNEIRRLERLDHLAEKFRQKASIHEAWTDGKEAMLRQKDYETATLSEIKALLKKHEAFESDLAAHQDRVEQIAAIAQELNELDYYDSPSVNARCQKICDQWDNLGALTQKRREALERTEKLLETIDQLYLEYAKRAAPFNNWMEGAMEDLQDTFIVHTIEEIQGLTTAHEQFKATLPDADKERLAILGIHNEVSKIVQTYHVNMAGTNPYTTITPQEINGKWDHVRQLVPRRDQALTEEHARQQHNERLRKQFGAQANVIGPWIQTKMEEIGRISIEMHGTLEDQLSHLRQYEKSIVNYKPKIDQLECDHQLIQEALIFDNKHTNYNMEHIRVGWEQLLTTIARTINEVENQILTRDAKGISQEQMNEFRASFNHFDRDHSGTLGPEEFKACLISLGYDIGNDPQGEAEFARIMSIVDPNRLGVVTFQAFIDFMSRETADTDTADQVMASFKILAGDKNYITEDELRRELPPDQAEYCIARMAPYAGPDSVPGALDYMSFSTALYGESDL

- stoichiometry N [1]: 2 subunits
- stoichiometry N [2]: 10 to 12
- stoichiometry N [3]: 2 subunits
Substance: actinogelin (from UniProt Q7TPR4 1-892) (natural protein)
